In patent US20160279079A1, “COMPOSITIONS AND METHODS FOR TREATING BONE DISEASES” (INDIANA UNIVERSITY RESEARCH AND TECHNOLOGY CORPORATION, priority 2013, published 2016):

Tests used:
c-Fos = assay: Quantitative real-time PCR, c-Fos mRNA in RAW264.7 cells; format: cell-based, mouse; conditions: day 2
Method: (§1) METHOD EXAMPLE. Quantitative real-time PCR. Total RNA was extracted using an RNeasy Plus mini kit (Qiagen, Germantown, Md., USA). Reverse transcription was conducted with high capacity cDNA reverse transcription kits (Applied Biosystems, Carlsbad, Calif., USA), and quantitative real-time PCR was performed using ABI 7500 with Power SYBR green PCR master mix kits (Applied Biosystems). We evaluated mRNA levels of ATF4, Osteocalcin (OCN), NFATcl, c-Fos, tartrate-resistant acid phosphatase (TRAP), and osteoclast-associated receptor (OSCAR) with the PCR primers listed in Table 1. GAPDH was used for internal control. The relative mRNA abundance for the selected genes with respect to the level of GAPDH mRNA was expressed as a ratio of Streated/Scontrol, where Streated=mRNA level for the cells treated with chemical agents, and Scontrol=mRNA level for control cells.
(§2) METHOD EXAMPLE. Partial suppression of mRNA levels of NFATcl, c-Fos, TRAP, and OSCAR by salubrinal. […] On day 2, for instance, the RANKL-driven increase was 9.4±0.5 fold (NFATcl), 1.9±0.1 fold (c-fos), 165±4.2 fold (TRAP), and 467±22 fold (OSCAR). The reduction by 20 μM salubrinal was 46% (NFATcl), 32% (c-fos), 35% (TRAP), and 21% (OSCAR) (FIG. 5A).
(§3) METHOD EXAMPLE. Reduction of RANKL-induced NFATcl, c-Fos, TRAP, and OSCAR by guanabenz. […] The normalized level of “1” was defined as the level for the cells that were not treated with RANKL without administration of guanabenz.

[1] = system: osteoclast-associated receptor (OSCAR); assay: Quantitative real-time PCR, OSCAR mRNA in RAW264.7 cells; format: cell-based, mouse; conditions: day 2
Method: as §1, §2, §3

NFATc1 [2] = assay: Quantitative real-time PCR, NFATc1 mRNA in RAW264.7 cells; format: cell-based, mouse; conditions: day 2
Method: as §1, §2, §3

[3] = system: tartrate-resistant acid phosphatase (TRAP); assay: Quantitative real-time PCR, TRAP mRNA in RAW264.7 cells; format: cell-based, mouse; conditions: day 2
Method: as §1, §2, §3

NFATc1 [4] = assay: Western immunoblotting, NFATc1 expression in RAW264.7 cells; format: cell-based, mouse; conditions: 24 h
Method: METHOD EXAMPLE. Downregulation of NFATcl in RAW264.7 cells by salubrinal. NFATcl is a transcription factor critical for activating osteoclastogenesis. […] The RANKL-induced expression of NFATcl was reduced by administration of 5-20 μM salubrinal on both days, and the effect of salubrinal was dose dependent (FIG. 4).
as §3
METHOD EXAMPLE. Western Immunoblotting. Cells were lysed in a radioimmunoprecipitation assay (RIPA) buffer containing protease inhibitors (Santa Cruz Biotechnology, Santa Cruz, Calif., USA) and phosphatase inhibitors (Calbiochem, Billerica, Mass., USA). Isolated proteins were fractionated using 10-15% SDS gels and electro-transferred to Immobilon-P membranes (Millipore, Billerica, Mass., USA). The membrane was incubated for 1 h with primary antibodies followed by 45 min incubation with goat anti-rabbit or anti-mouse IgG conjugated with horseradish peroxidase (Cell Signaling, Danvers, Mass., USA). We used antibodies against ATF4, NFATcl (Santa Cruz), p-eIF2α (Thermo Scientific, Waltham, Mass., USA), eIF2α, caspase 3, cleaved caspase 3, p38 and p-p38 mitogen activated protein kinase (MAPK), extracellular signal-regulated kinase (ERK) and p-ERK, nuclear factor kappa B (NFκB) p65 and p-NFκB p65 (Cell Signaling), and β-actin (Sigma). Protein levels were assayed using a SuperSignal west femto maximum sensitivity substrate (Thermo Scientific), and signal intensities were quantified with a luminescent image analyzer (LAS-3000, Fuji Film, Tokyo, Japan).
METHOD EXAMPLE. Temporal profile of p-eIF2α and NFATcl. […] Note that the normalized level of “1” in FIG. 6C was defined as the level for the cells that were not treated with RANKL without administration of guanabenz.

[5] = system: RAW264.7 mouse pre-osteoclast (monocyte/macrophage) cells; assay: Cell mortality and live cell numbers (trypan blue, hemacytometer); format: cell-based; conditions: incubation with RANKL (20 ng/ml), 24 h
Method: METHOD EXAMPLE. Cell culture. MC3T3 E1 mouse osteoblast-like cells (clone 14—MC3T3 E1-14; and no clonal cells in supplementary figures), and RAW264.7 mouse pre-osteoclast (monocyte/macrophage) cells were cultured in αMEM containing 10% fetal bovine serum and antibiotics (50 units/ml penicillin, and 50 μg/ml streptomycin; Life Technologies, Grand Island, N.Y., USA). Cells were maintained at 37° C. and 5% CO2 in a humidified incubator. Cell mortality and live cell numbers were determined 24 h after the treatment with 20 ng/ml RANKL (PeproTech, Rocky Hills, N.C., USA) in response to 0.1-20 μM salubrinal or 1-20 μM guanabenz acetate (Tocris Bioscience, Ellisville, Mo., USA). Cells were stained with trypan blue and the numbers of live and dead cells were counted using a hemacytometer.
METHOD EXAMPLE. Inhibition of osteoclastogenesis of RAW264.7 cells by salubrinal. The primary aim of this study is to evaluate the effects of salubrinal on osteoclastogenesis. In response to 0.1-20 μM salubrinal for 24 h, cell mortality and live cell numbers of RAW264.7 pre-osteoclasts was examined. […] The number of live cells was increased by ˜50% by incubation with RANKL, and administration of 10-20 μM salubrinal reduced the numbers approximately by 10% (FIG. 3B).
METHOD EXAMPLE. Inhibitory effects of guanabenz on osteoclastogenesis of RAW264.7 cells. To further examine a potential involvement of p-eIF2α in regulation of osteoclastogenesis, we employed guanabenz that also acts as an inhibitor of de-phosphorylation of eIF2α was evaluated. […] Compared to the number of TRAP-positive multi-nucleated cells of 377 39 (RANKL only), guanabenz reduced the number of differentiated osteoclasts to 364±38 (1 μM), 288±51 (5 μM), 189±25 (10 μM), and 73±16 (20 μM).

B1: RANKL: cytokine belonging to the tumor necrosis factor family; stimulus for osteoclast differentiation (PeproTech) (protein, UniProt O14788 140-317, looked up)
Tumor necrosis factor ligand …: IRAEKAMVDGSWLDLAKRSKLEAQPFAHLTINATDIPSGSHKVSLSSWYHDRGWAKISNMTFSNGKLIVNQDGFYYLYANICFRHHETSGDLATEYLQLMVYVTKTSIKIPSSHTLMKGGSTKYWSGNSEFHFYSINVGGFFKLRSGEEISIEVSNPSLLDPDQDATYFGAFKVRDID
With B1 the “RANKL-driven increase of c-fos mRNA level” value (c-Fos) was 1.9±0.1 fold, the “RANKL-driven increase of OSCAR mRNA level” value [1] was 467±22 fold and the “RANKL-driven increase of NFATc1 mRNA level” value (NFATc1 [2]) was 9.4±0.5 fold. For the same molecule, the “RANKL-driven increase of TRAP mRNA level” value [3] was 165±4.2 fold, the “elevation of NFATc1 by addition of RANKL” value (NFATc1 [4]) was 13.4±3.2 fold and the “increase of the number of live cells” value [5] was about 50%.
